Data set [1] relates to HeLa Kyoto. In words: melting temperature (median over replicates), in situ; higher = more thermally stable.
For data set [2], the system named is HeLa Kyoto. In words: thermal stability score vs G1/S (z-score of summed log2 fold changes over temperatures); higher = more thermally stable than in G1/S.
Data set [3] deals with HeLa Kyoto. In words: solubility in G1/S (NP-40 vs SDS abundance) (log2 ratio); higher = more soluble. Particulars: cell cycle stage: G1/S.
For data set [4], the system named is HeLa Kyoto. In words: solubility change mitosis vs G1/S (difference of NP-40 vs SDS log2 ratios) (log2 ratio difference); higher = more soluble in mitosis.
The mark [5] stands for this setting: cell cycle stage: early G1 (4.5 h after nocodazole release).
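Wherever melting temperature (median over replicates), in situ is given: HeLa Kyoto cells synchronized by double thymidine or nocodazole block, proteins quantified by TMT10plex mass spectrometry, three independent biological replicates.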
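Wherever solubility change mitosis vs G1/S (difference of NP-40 vs SDS log2 ratios) is given: synchronized HeLa Kyoto cells (double thymidine block for G1/S, nocodazole release for mitosis), protein amounts in NP-40 versus SDS lysates quantified by mass spectrometry, three biological replicates.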
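Wherever solubility in G1/S (NP-40 vs SDS abundance) is given: HeLa Kyoto cells arrested at G1/S by double thymidine block, proteins quantified by TMT10plex mass spectrometry in mild NP-40 versus SDS extracts, three biological replicates.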
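Wherever thermal stability score vs G1/S (z-score of summed log2 fold changes over temperatures) is given: synchronized HeLa Kyoto cells, proteins quantified by TMT10plex mass spectrometry, three biological replicates, mitosis taken 0.5 h after nocodazole release, G1/S directly after double thymidine block.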

Regarding “MPGVIPSESNGLSRGSPSKKNRLSLKFFQKKETKRALDFTDSQENEEKASEYRASEIDQVVPAAQSSPINCEKRENLLPFVGLNNLGNTCYLNSILQVLYFCPGFKSGVKHLFNIISRKKEALKDEANQKDKGNCKEDSLASYELICSLQSLIISVEQLQASFLLNPEKYTDELATQPRRLLNTLRELNPMYEGYLQHDAQEVLQCILGNIQETCQLLKKEEVKNVAELPTKVEEIPHPKEEMNGINSIEMDSMRHSEDFKEKLPKGNGKRKSDTEFGNMKKKVKLSKEHQSLEENQRQTRSKRKATSDTLESPPKIIPKYISENESPRPSQKKSRVKINWLKSATKQPSILSKFCSLGKITTNQGVKGQSKENECDPEEDLGKCESDNTTNGCGLESPGNTVTPVNVNEVKPINKGEEQIGFELVEKLFQGQLVLRTRCLECESLTERREDFQDISVPVQEDELSKVEESSEISPEPKTEMKTLRWAISQFASVERIVGEDKYFCENCHHYTEAERSLLFDKMPEVITIHLKCFAASGLEFDCYGGGLSKINTPLLTPLKLSLEEWSTKPTNDSYGLFAVVMHSGITISSGHYTASVKVTDLNSLELDKGNFVVDQMCEIGKPEPLNEEEARGVVENYNDEEVSIRVGGNTQPSKVLNKKNVEAIGLLGGQKSKADYELYNKASNPDKVASTAFAENRNSETSDTTGTHESDRNKESSDQTGINISGFENKISYVVQSLKEYEGKWLLFDDSEVKVTEEKDFLNSLSPSTSPTSTPYLLFYKKL [USP1]”, in the data set with HeLa Kyoto [1] (cell cycle stage: G1/S), the melting temperature stood at 48.8 °C. The values for the thermal stability score with HeLa Kyoto [2] (setting [5]) and in the data set on HeLa Kyoto [2] (cell cycle stage: mitosis) were 0.238 and 1.6, respectively. The “solubility in G1/S (log2)” value in the data set on HeLa Kyoto [3] was -0.118. Moreover, the “solubility change mitosis (log2)” value with HeLa Kyoto [4] was -0.0658.
With “MPHRKERPSGSSLHTHGSTGTAEGGNMSRLSLTRSPVSPLAAQGIPLPAQLTKSNAPVHIDVGGHMYTSSLATLTKYPDSRISRLFNGTEPIVLDSLKQHYFIDRDGEIFRYVLSFLRTSKLLLPDDFKDFSLLYEEARYYQLQPMVRELERWQQEQEQRRRSRACDCLVVRVTPDLGERIALSGEKALIEEVFPETGDVMCNSVNAGWNQDPTHVIRFPLNGYCRLNSVQVLERLFQRGFSVAASCGGGVDSSQFSEYVLCREERRPQPTPTAVRIKQEPLD [KCTD15]”, the melting temperature with HeLa Kyoto [1] (cell cycle stage: G1/S) was found to be 56 °C; in the data set with HeLa Kyoto [1] (cell cycle stage: mitosis), 56.9 °C. The thermal stability score is -2.02 in the data set on HeLa Kyoto [2] (setting [5]) and 0.00454 in the data set on HeLa Kyoto [2] (cell cycle stage: mitosis). Besides, the “solubility in G1/S (log2)” value with HeLa Kyoto [3] came out at 0.447. The “solubility change mitosis (log2)” value with HeLa Kyoto [4] was -0.0635.
On to “MPKKFQGENTKSAAARARRAEAKAAADAKKQKELEDAYWKDDDKHVMRKEQRKEEKEKRRLDQLERKKETQRLLEEEDSKLKGGKAPRVATSSKVTRAQIEDTLRRDHQLREAPDTAEKAKSHLEVPLEENVNRRVLEEGSVEARTIEDAIAVLSVAEEAADRHPERRMRAAFTAFEEAQLPRLKQENPNMRLSQLKQLLKKEWLRSPDNPMNQRAVPFNAPK [CCDC124]”, for which the melting temperature with HeLa Kyoto [1] (cell cycle stage: G1/S) is 57.1 °C; with HeLa Kyoto [1] (cell cycle stage: mitosis) it was 53.7 °C. In addition, the thermal stability score in the data set with HeLa Kyoto [2] (setting [5]) was 0.653; in the data set with HeLa Kyoto [2] (cell cycle stage: mitosis) it was -5.08. Also, the “solubility in G1/S (log2)” value with HeLa Kyoto [3] came out at 0.214. Also, the “solubility change mitosis (log2)” value with HeLa Kyoto [4] was determined as 0.537.
Consider “MPKRKAAGQGDMRQEPKRRSARLSAMLVPVTPEVKPKRTSSSRKMKTKSDMMEENIDTSAQAVAETKQEAVVEEDYNENAKNGEAKITEAPASEKEIVEVKEENIEDATEKGGEKKEAVAAEVKNEEEDQKEDEEDQNEEKGEAGKEDKDEKGEEDGKEDKNGNEKGEDAKEKEDGKKGEDGKGNGEDGKEKGEDEKEEEDRKETGDGKENEDGKEKGDKKEGKDVKVKEDEKEREDGKEDEGGNEEEAGKEKEDLKEEEEGKEEDEIKEDDGKKEEPQSIV [HMGN5]”, for which the melting temperature was determined as 59.9 °C in the data set on HeLa Kyoto [1] (cell cycle stage: G1/S) and 59.8 °C in the data set on HeLa Kyoto [1] (cell cycle stage: mitosis). The thermal stability score is -0.636 in the data set with HeLa Kyoto [2] (setting [5]) and -5.4 in the data set on HeLa Kyoto [2] (cell cycle stage: mitosis). Further, the “solubility in G1/S (log2)” value in the data set with HeLa Kyoto [3] is 0.255. Further, the “solubility change mitosis (log2)” value in the data set on HeLa Kyoto [4] stood at 0.272.
As for “MPKRKVTFQGVGDEEDEDEIIVPKKKLVDPVAGSGGPGSRFKGKHSLDSDEEEDDDDGGSSKYDILASEDVEGQEAATLPSEGGVRITPFNLQEEMEEGHFDADGNYFLNRDAQIRDSWLDNIDWVKIRERPPGQRQASDSEEEDSLGQTSMSAQALLEGLLELLLPRETVAGALRRLGARGGGKGRKGPGQPSSPQRLDRLSGLADQMVARGNLGVYQETRERLAMRLKGLGCQTLGPHNPTPPPSLDMFAEELAEEELETPTPTQRGEAESRGDGLVDVMWEYKWENTGDAELYGPFTSAQMQTWVSEGYFPDGVYCRKLDPPGGQFYNSKRIDFDLYT [CD2BP2]”, the melting temperature in the data set with HeLa Kyoto [1] (cell cycle stage: G1/S) was 47.9 °C; with HeLa Kyoto [1] (cell cycle stage: mitosis), 51.2 °C. Besides, the thermal stability score with HeLa Kyoto [2] (setting [5]) stood at 0.517; in the data set with HeLa Kyoto [2] (cell cycle stage: mitosis), 0.833. For the same sequence, the “solubility in G1/S (log2)” value in the data set with HeLa Kyoto [3] came to 0.00357. Also, the “solubility change mitosis (log2)” value with HeLa Kyoto [4] worked out at 0.301.
Take “MPKTISVRVTTMDAELEFAIQPNTTGKQLFDQVVKTIGLREVWFFGLQYQDTKGFSTWLKLNKKVTAQDVRKESPLLFKFRAKFYPEDVSEELIQDITQRLFFLQVKEGILNDDIYCPPETAVLLASYAVQSKYGDFNKEVHKSGYLAGDKLLPQRVLEQHKLNKDQWEERIQVWHEEHRGMLREDAVLEYLKIAQDLEMYGVNYFSIKNKKGSELWLGVDALGLNIYEQNDRLTPKIGFPWSEIRNISFNDKKFVIKPIDKKAPDFVFYAPRLRINKRILALCMGNHELYMRRRKPDTIEVQQMKAQAREEKHQKQMERAMLENEKKKREMAEKEKEKIEREKEELMERLKQIEEQTKKAQQELEEQTRRALELEQERKRAQSEAEKLAKERQEAEEAKEALLQASRDQKKTQEQLALEMAELTARISQLEMARQKKESEAVEWQQKAQMVQEDLEKTRAELKTAMSTPHVAEPAENEQDEQDENGAEASADLRADAMAKDRSEEERTTEAEKNERVQKHLKALTSELANARDESKKTANDMIHAENMRLGRDKYKTLRQIRQGNTKQRIDEFESM [MSN]”: the values for the melting temperature in the data set on HeLa Kyoto [1] (cell cycle stage: G1/S) and in the data set on HeLa Kyoto [1] (cell cycle stage: mitosis) were 52.1 °C and 52 °C, respectively. Moreover, the thermal stability score with HeLa Kyoto [2] (setting [5]) is -0.264; with HeLa Kyoto [2] (cell cycle stage: mitosis), 1.56. Moreover, the “solubility in G1/S (log2)” value in the data set on HeLa Kyoto [3] was determined as 0.0519. Besides, in the data set on HeLa Kyoto [4], the “solubility change mitosis (log2)” value was -0.0148.

(Values after the supplement of paper PMC5998384.)
